{"source": "paper PMC9439264", "target": "HA trimer of A/Beijing/262/1995 (H1N1), thrombin- and trypsin-treated, for the immune complex (Influenza A virus A/Beijing/262/1995 (H1N1))", "assay": "cryo-EM structure; 12H5 Fab with thrombin- and trypsin-treated BJ/1995 HA trimer"}
{"substance": "HA trimer of A/Beijing/262/1995 (H1N1), thrombin- and trypsin-treated, for the immune complex", "values": [{"measurement": "stoichiometry N", "result": 3}]}
